The values below come from patent publication US20150344544A1 (ACADEMIA SINICA, published 2015).

Where only a bound is given, the exact number is not on record here.

The chains are these.
T1: FcγRIIa (UniProt P12318 34-217, limits assumed)
T1 construct: Used in ELISA; construct not described
T1 sequence (looked up): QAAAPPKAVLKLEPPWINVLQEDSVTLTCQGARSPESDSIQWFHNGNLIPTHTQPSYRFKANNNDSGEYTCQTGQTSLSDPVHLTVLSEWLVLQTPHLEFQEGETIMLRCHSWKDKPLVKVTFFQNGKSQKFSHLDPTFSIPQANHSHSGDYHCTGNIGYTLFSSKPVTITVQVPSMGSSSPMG

T2: FcγRIIb (UniProt P31994 43-217, limits assumed)
T2 construct: Used in ELISA; construct not described
T2 sequence (looked up): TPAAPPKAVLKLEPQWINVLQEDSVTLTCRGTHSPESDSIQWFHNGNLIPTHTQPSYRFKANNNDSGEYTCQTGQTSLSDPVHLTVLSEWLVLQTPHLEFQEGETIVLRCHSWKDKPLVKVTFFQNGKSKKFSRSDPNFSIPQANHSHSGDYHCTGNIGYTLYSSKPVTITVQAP

B1: Rituximab (antibody, human IgG1, kappa)
heavy: not shown
light: QIVLSQSPAILSASPGEKVTMTCRASSSVSYIHWFQQKPGSSPKPWIYATSNLASGVPVRFSGSGSGTSYSLTISRVEAEDAATYYCQQWTSNPPTFGGGTKLEIKRTVAAPSVFIFPPSDEQLKSGTASVVCLLNNFYPREAKVQWKVDNALQSGNSQESVTEQDSKDSTYSLSSTLTLSKADYEKHKVYACEVTHQGLSSPVTKSFNRGEC
notes: Commercial IgG1 with its native heterogeneous Fc glycans; also called Rituxan; Roche-Rituximab
B2: G6 glycoengineered Rituximab (antibody, human IgG1, kappa)
heavy: not shown
light: B1 light
modifications: homogeneous afucosylated Fc N-glycan (Asn-297): GalGlcNAc2Man3GlcNAc2
notes: IgG1; also called anti-CD20 GAb106
B3: 2,6-NSCT-Rituximab (antibody, human IgG1, kappa)
heavy: not shown
light: B1 light
modifications: homogeneous afucosylated Fc N-glycan (Asn-297): Sia2(α2-6)Gal2GlcNAc2Man3GlcNAc2
notes: also called anti-CD20 GAb101
B4: mono-GlcNAc Rituximab (antibody, human IgG1, kappa)
heavy: not shown
light: B1 light
modifications: single GlcNAc (defucosylated) at the Fc N-glycosylation site (Asn-297)
notes: IgG1; made from Rituximab with fucosidase BfFucH and an endoglycosidase; also called N-Rituximab
B5: 2,3-NSCT-Rituximab (antibody, human IgG1, kappa)
heavy: not shown
light: B1 light
modifications: homogeneous afucosylated Fc N-glycan (Asn-297), 2,3-sialylated: Sia2(α2-3)Gal2GlcNAc2Man3GlcNAc2
B6: G7 glycoengineered Rituximab (antibody, human IgG1, kappa)
heavy: not shown
light: B1 light
modifications: homogeneous afucosylated Fc N-glycan (Asn-297): Man3GlcNAc2
notes: IgG1; also called anti-CD20 GAb111
B7: G8 glycoengineered Rituximab (antibody, human IgG1, kappa)
heavy: not shown
light: B1 light
modifications: homogeneous afucosylated Fc N-glycan (Asn-297): GlcNAcMan3GlcNAc2
notes: IgG1; also called anti-CD20 GAb110
B8: G3 glycoengineered Rituximab (antibody, human IgG1, kappa)
heavy: not shown
light: B1 light
modifications: homogeneous afucosylated Fc N-glycan (Asn-297): GlcNAcMan3GlcNAc2
notes: IgG1; also called anti-CD20 GAb109
B9: G9 glycoengineered Rituximab (antibody, human IgG1, kappa)
heavy: not shown
light: B1 light
modifications: homogeneous afucosylated bisected Fc N-glycan (Asn-297): GlcNAc3Man3GlcNAc2
notes: IgG1; bisected glycan; also called anti-CD20 GAb107
B10: G1 glycoengineered Rituximab (antibody, human IgG1, kappa)
heavy: not shown
light: B1 light
modifications: homogeneous afucosylated Fc N-glycan (Asn-297): Gal2GlcNAc2Man3GlcNAc2
notes: IgG1; also called anti-CD20 GAb104

T5 sequence (P02745 23-245 limits assumed, chain 1 of 3): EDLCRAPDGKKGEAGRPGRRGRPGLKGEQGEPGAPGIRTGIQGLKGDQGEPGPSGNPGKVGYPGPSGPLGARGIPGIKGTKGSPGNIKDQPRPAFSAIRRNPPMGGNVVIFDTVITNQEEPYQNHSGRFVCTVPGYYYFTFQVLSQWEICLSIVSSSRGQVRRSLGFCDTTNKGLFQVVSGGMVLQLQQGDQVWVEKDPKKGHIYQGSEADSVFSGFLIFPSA
T5 sequence (P02746 28-253 limits assumed, chain 2 of 3): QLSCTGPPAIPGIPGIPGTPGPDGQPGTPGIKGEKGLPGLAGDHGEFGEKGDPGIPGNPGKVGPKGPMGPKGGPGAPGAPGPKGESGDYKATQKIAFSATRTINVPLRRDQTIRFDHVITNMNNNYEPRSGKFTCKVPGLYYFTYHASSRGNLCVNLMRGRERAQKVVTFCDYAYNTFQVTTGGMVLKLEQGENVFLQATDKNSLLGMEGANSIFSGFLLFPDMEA
T5 sequence (P02747 29-245 limits assumed, chain 3 of 3): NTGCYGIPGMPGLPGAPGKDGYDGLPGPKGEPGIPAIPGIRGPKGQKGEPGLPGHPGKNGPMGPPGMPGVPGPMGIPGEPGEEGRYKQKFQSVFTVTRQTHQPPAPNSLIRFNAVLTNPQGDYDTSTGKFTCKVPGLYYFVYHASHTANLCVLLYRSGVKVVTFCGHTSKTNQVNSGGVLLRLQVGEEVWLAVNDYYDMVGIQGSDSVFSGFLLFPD

The target of the first assay is T3, FcγRIIIa (UniProt P08637 17-208, limits assumed).
T3 construct: Soluble receptor used in ELISA and SPR; source and construct not described; also called FcRIIIA
T3 sequence (P08637 17-208 limits assumed): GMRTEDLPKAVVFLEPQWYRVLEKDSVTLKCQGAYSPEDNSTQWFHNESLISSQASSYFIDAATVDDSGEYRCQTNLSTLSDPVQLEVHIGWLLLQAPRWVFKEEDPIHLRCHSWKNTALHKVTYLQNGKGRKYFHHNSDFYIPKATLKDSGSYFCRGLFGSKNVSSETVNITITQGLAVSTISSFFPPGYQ
Put plainly: SPR. Background: SPR reads the build-up and loss of mass on a sensor chip optically.
The Kd is the constant that tells how readily two partners part at equilibrium. High values mean weaker binding, low ones tighter binding. As for B1, the Kd is 100 nM.

B2 gave a Kd of 7 to 30 nM.

The target of a further assay is T3, FcγRIIIa. Description: ELISA.
Usually EC50 stands for the concentration at which the effect is half-maximal. A higher EC50 goes with weaker potency. Turning to B1, the EC50 was in the range of 6.2 to 9 nM.

For the molecule B3, the EC50 was in the range of 0.24 to 0.27 nM.

For the molecule B4, the EC50 is 36.3 nM.

The target of a further assay is T1, FcγRIIa. Description: ELISA.
Take B1: the response was half-maximal at 5.4 nM (EC50). This counts as single-digit nanomolar.

B5: a half-maximal effect (EC50) was put at 16.5 nM. This EC50 is about 3.1-fold higher than that of the molecule before.

For B3, the response was half-maximal at 3 nM (EC50).

The target in the next assay is T4, FcγRI (UniProt P12314 16-288, limits assumed).
T4 construct: Used in ELISA; construct not described
T4 sequence (P12314 16-288 limits assumed): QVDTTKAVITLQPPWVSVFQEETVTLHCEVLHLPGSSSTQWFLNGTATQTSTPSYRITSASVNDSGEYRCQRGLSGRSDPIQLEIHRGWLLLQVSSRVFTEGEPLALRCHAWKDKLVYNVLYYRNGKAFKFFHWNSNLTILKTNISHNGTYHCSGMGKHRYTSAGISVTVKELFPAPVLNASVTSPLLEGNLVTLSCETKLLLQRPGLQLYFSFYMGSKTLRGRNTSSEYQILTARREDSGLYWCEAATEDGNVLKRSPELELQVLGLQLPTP
Description: ELISA. On the technique in general: ELISA stands for enzyme-linked immunosorbent assay.
B1 came in with an EC50 of 0.19 nM.

B3 returned an EC50 of 0.23 nM.

For the molecule B4, the EC50 was 0.85 nM. This EC50 is about 3.7-fold higher than that of the molecule before.

The target in the next assay is T2, FcγRIIb. Description: ELISA.
B1: it took 0.51 nM to reach a half-maximal effect (EC50).

Molecule B5 had an EC50 of 0.53 nM.

Take B3: the EC50 turned out to be 0.28 nM.

B4 gave an EC50 of 0.32 nM.

The next assay addresses T5, C1q (UniProt P02745 23-245; P02746 28-253; P02747 29-245).
T5 construct: Complement component C1q used in ELISA; source not described
Description: ELISA.
Consider B1, for which the EC50 was 6.5 nM. That is a single-digit nanomolar value.

With B3, the EC50 stood at 8 nM.

The next assay has as its target T3, FcγRIIIa. Put plainly: cell-based or functional assay.
Take B1: the “EC50 (ug/ml), PBMC mediated ADCC on Raji cells” value (“EC50 (ug/ml) … on Raji cells” below) was determined as 0.319 µg/mL; the “EC50 (ug/ml), PBMC mediated ADCC on Ramos cells” value was 4.38 µg/mL; the “EC50 (ug/ml), PBMC mediated ADCC on SKW6.4 cells” value (“EC50 (ug/ml) … on SKW6.4 cells” below) came to 2.07 µg/mL.

Consider B5, for which the “EC50 (ug/ml) … on Raji cells” value came out at 0.086 µg/mL; the “EC50 (ug/ml), PBMC mediated ADCC on Ramos cells” value amounted to 1.45 µg/mL; the “EC50 (ug/ml) … on SKW6.4 cells” value worked out at 1.22 µg/mL.

As for B3, the “EC50 (ug/ml) … on Raji cells” value turned out to be 0.022 µg/mL; the “EC50 (ug/ml), PBMC mediated ADCC on Ramos cells” value turned out to be 0.377 µg/mL; the “EC50 (ug/ml) … on SKW6.4 cells” value was 0.276 µg/mL.

In the next assay the target is T5, C1q. Description: cell-based or functional assay.
Regarding B1, the “EC50 (ug/ml), CDC assay on Ramos cells, FACS” value (from here on “EC50 (ug/ml), CDC assay”) turned out to be 0.033 µg/mL.

With B5, the “EC50 (ug/ml), CDC assay” value stood at 0.086 µg/mL.

As for B3, the “EC50 (ug/ml), CDC assay” value was 0.039 µg/mL.

Another assay deals with T3, FcγRIIIa. Description: SPR; commercial Rituxan, not glycoengineered (reference).
Molecule B1 registered a Kd of no more than 300 nM.

A further assay addresses T3, FcγRIIIa. Description: SPR, antibody captured with Human Fab capture kit, single cycle kinetics. An excerpt:
Analyzed antibodies were captured by means of the Human Fab capture kit and detected with the single cycle kinetic method.
B6 returned a Kd of 62.7 nM.

In turn, B7 registered a Kd of 120 nM.

Consider B2, for which binding was characterised by a dissociation constant (Kd) of 27.2 nM.

Turning to B8, the affinity, expressed as Kd, was 83.6 nM.

B9 came in with a Kd of 26.2 nM. Against the preceding molecule, the Kd is about 3.2-fold lower.

The molecule B3 showed a Kd of 8.28 nM.

For B10, the Kd is 9.33 nM.
